B1: Transcriptional regulator ERG, residues 117 to 197; numbered along this chain, P11308 (parent)
chain: NMTTNERRVIVPADPTLWSTDHVRQWLEWAVKEYGLPDVNILLFQNIDGKELCKMTKDDFQRLTPSYNADILLSHLHYLRE

Variants of: B1
Test: abundance fitness (aPCA) (normalised: wild type 0, dead -1); higher = more abundant; growth selection in yeast, the domain comes from the species named
Conditions: Homo sapiens

Abundance fitness: each site, then its substitutions
D48: N 0.022 | H -0.282 | R -0.183 | M -0.412 | Y -1 | S -0.052 | E -0.076 | T 0.033 | F -0.399 | G -0.114 | C -0.075 | W -0.969 | P -0.295 | K -0.123 | V -0.378 | L -0.521 | Q -0.227
T56: L -0.265 | V -0.066 | K 0.081 | P -0.632 | C -0.024 | Q -0.108 | F -0.502 | I -0.236 | G 0.042 | A -0.118 | D -0.01 | S 0.077 | Y -0.457 | E -0.058 | N -0.076 | R -0.082 | M -0.282 | H -0.123
D59: L -0.765 | S -0.155 | Y -0.666 | A 0.068 | F -0.538 | N -0.24 | R -0.154 | H -0.244 | T 0.059 | G -0.204 | W -0.743 | E -0.09 | Q -0.04 | V -0.232 | K -0.199 | M -0.204 | C 0.027
C53: Q -0.269 | M 0.043 | S -0.15 | V -0.034 | T -0.06 | D -0.325 | L 0 | R -0.391 | G -0.262 | H -0.574 | P -1.06 | W -0.561 | A -0.132 | I -0.099 | F -0.235 | N -0.228 | Y -0.509 | E -0.471
I47: N -0.492 | D -0.789 | E -0.712 | A -0.521 | Y -0.022 | T -0.242 | V 0.006 | S -0.751 | W -0.653 | K -0.255 | F -0.176 | P -0.99 | H -0.251 | C -0.163 | L -0.046 | R -0.609 | Q -1.08
N46: P -0.244 | D 0.023 | M -0.255 | R -0.106 | E 0.039 | Q -0.144 | Y -0.082 | W -0.201 | K -0.104 | T -0.035 | F -0.133 | I -0.379 | L -0.251 | C -0.066 | V -0.617 | H -0.063 | S 0.012
K57: S -0.024 | D -0.093 | P -0.028 | A 0.029 | R -0.016 | I 0.18 | C -0.264 | L -0.084 | N -0.234 | M -0.165 | T -0.14 | F -0.15 | E -0.023 | V -0.127 | Q -0.159
L52: C -0.928 | A -0.695 | M -0.324 | W -0.809 | P -0.886 | Y -0.883 | R -0.77 | K -0.728 | V -0.308 | S -0.932 | H -0.689 | G -0.694 | F -0.327 | T -1.11 | N -0.97 | Q -0.946 | I -0.126 | E -0.367
Q45: V -0.154 | D -0.096 | Y -0.113 | W -0.292 | G -0.042 | T -0.132 | H 0.07 | M -0.083 | L -0.241 | I -0.235 | C -0.234 | F -0.274 | R -0.055 | E 0.045 | S -0.005 | K 0.042 | P -0.407
T64: D 0.041 | C -0.076 | A -0.034
M55: N -0.37 | I -0.431 | G -0.807 | E -1.09 | Q -0.924 | K -0.315 | R -0.65 | C -0.278 | L -0.023 | S -1.14

Reference: the Human Domainome abundance scans (Beltran et al. 2025)
